{
  "source": "the DeepSol protein solubility set",
  "data": [
    {"assay": "soluble on expression in E. coli; label from the status in PepcDB or PDB records", "values": [
      {"sequence": "MPVIKDAVCSLCGSLCDDITVTVEDNKITKIENACILGHSKFVGMFEHDRIETPMVRKDGELVPVSYEEAIEAAAKILVNSRRTLSYGWCSTSCEAVSGAIQLAEETGSIIDSTANVCHGPTALAAQEKGSPSASLGEIKNRADVIVFWGCNPVHAHPRHMSRYSSFSKGFFTEKGRKGRKMVVIDVRKTDTAKIADKYVEIEQGSDLLLVTALRSIVNGHEDVVPETVAGVPKAEVLELAETLKNAKFTCIFFGMGVTQSRSKYKNGDAVSSLISDLNQHTKAVMIGMRGHYNVTGFGQVATWETGFPMAIDFSRGYPYYNPGETGANDLLVREEPDAAIIAAADAGAHFPQKAVRHLARIPVIQIDPYANPTTEIADVVIPAAVVGIEAEGTAYRMDAISLRMKKLIDTEFKTDEEIVKDLTAKVREMKRGV", "soluble on expression in E. coli": "not soluble"},
      {"sequence": "MKPPSSIQTSEFDSSDEEPIEDEQTPIHISWLSLSRVNCSQFLGLCALPGCKFKDVRRNVQKDTEELKSCGIQDIFVFCTRGELSKYRVPNLLDLYQQCGIITHHHPIADGGTPDIASCCEIMEELTTCLKNYRKTLIHSYGGLGRSCLVAACLLLYLSDTISPEQAIDSLRDLRGSGAIQTIKQYNYLHEFRDKLAAHLSSRDSQSRSVSR", "soluble on expression in E. coli": "soluble"},
      {"sequence": "MTPPVSAFKKTPKKEEHPLVAIVILDAFDQRFAPTHESYPCFGTIPICNVPAINFALSWLMRTEVKNVMLVVSGLNADHATSVQREWRLAFDEFTVVVCDGASSVGDCMREIHNRELITGDFMLISNPTAVVSSTLSAQISEFRKRRRENPDNVMTLLYSNRENPEHLVLGINSETSKLMLFPAANSLNQLKASKKDFYDEVDIRRDLTPTGIAFCSRLIATQFSDNFDFVGIDDVVREILSKDDILGMSVHVEVLSPKERAFCAYDYESLILLNILMLERWFYPLVPENSDPSRYFSANPRNLYLEENGDEISIKANTWILNNNCSTVCLGVKTDIAYDAFIRNSCIGAHTEISSKTRITSSMIGKNCKIGENCVIEYAFIGDDVVIPNGAHIPKESIIGNGVMYPKELPNIQNTAIFKNAINEETFEKLSSQPIGNVHVSKFRNGGPFWRRSVNGKTNFALEEDDSESEYSESEEEDDGVGNSTKMFHDEVLESMQKILESENSLMRNLILEINSSKLACNVTMDEVARNVFAAFMKLKHNQDFNKMKELIVKWQPLFLNYYKTSAESLKVKSADQKRFELDLKRRCQIQLLLAIEDKFDRDESFGVKAQALVHYLYQEADILDEDSIIEWAGSIAEESKLKGLMKKIVDWLQEDDDEEESEDE", "soluble on expression in E. coli": "not soluble"},
      {"sequence": "MGSDKIHHHHHHMLIHICCSVDNLYFLKKAKEAFAGEKIVGFFYNPNIHPYSEYLLRLEDVKRTCEMLGIELLEGDYELEKFLDKAKGKELLGEKSERCFECFDLRLEASALKAFELGEEKFTTTLLTSPKKDPNQLIAKGQHIAQRHNLEFVVFRNDNFEHFKSELDLNLQALARENELYRQNYCGCQFALKIQKESQNRSPFELYSPLKRQILPASIEERTQVFRELDAAKKDANKPFLAQKTIATYRLLNGGVWLSKNSNPLDCCILARSKSKAKVRINDLRWVFSQRLSALVGYSQRDETLFLTLEGLNTLMAKNYDNLKELNLNPLSYEEELSLRALVSGSESINPIIVLEERTEKTLFVEIKSIFQEEKVFYLL", "soluble on expression in E. coli": "not soluble"},
      {"sequence": "MSRNDSLISIIVPVYNVEQYLSRCVDSLVNQTYHNIEIILVDDGSPDRSGEICDEYAKKDKRVKVIHQSNGGLSDARNTALDIAKGDYLMFVDSDDWIEKKTCEILNRLASDYKADTVIFGLNFVFDSGKVIRSKRGMAGLTDKNMCMKYLIHNVARGGIFNYACNKMFSSHLFEGLRFPVGRLAEDQDVIYKLIHRSQRIYVTEQPLYNYYQRDGSITAAQYYPRLIRDRHELWLKRLDFIREYYPDLENYQIAQILGAAYVGIVKLEGNKQNGELKKKLICFSNKYILKEKELSVLDRKIKLHYYCYPLFWLYVKLFIK", "soluble on expression in E. coli": "not soluble"},
      {"sequence": "MNVYTFDFNDIKNQSDFYREFTQTFGLASEKVSDLDTLWDAVMSDILPLPLEIEFVHLPDKLRRRYGALILLFDEAEEELEGRLRFNVRH", "soluble on expression in E. coli": "not soluble"},
      {"sequence": "MIIRDENYFTDKYELTRTHSEVLEAVKVVKPGKTLDLGCGNGRNSLYLAANGYDVDAWDKNAMSIANVERIKSIENLDNLHTRVVDLNNLTFDRQYDFILSTVVLMFLEAKTIPGLIANMQRCTKPGGYNLIVAAMDTADYPCTVGFPFAFKEGELRRYYEGWERVKYNEDVGELHRTDANGNRIKLRFATMLARKKLEHHHHHH", "soluble on expression in E. coli": "not soluble"},
      {"sequence": "MNQTKTTTDDNKNSKPAETESTITVPEWITETINGGSFCHVDLETGTNGWASPPGNVFSLRSHNYFTATKQKSPGGDYLLSLAAVDWLKSTTKKLDHILSRPDNRVIHAFKTSQSRSFIFAVNFQVPGKEHYNLVFYFATQKPIPSDSLLHKFINTDEDSFRNERFKIVSNVVKGPWVVKAAAGKFGAFVAGKAMKCTYYRGDNYFEVDVDISSSAIMTALIRFMLGYVTYLMVDIGFVVEAQTAEELPERLIGGARICHMELSSSFLVDDDEKKSLQPRRRMMGAAEDNDDEI", "soluble on expression in E. coli": "soluble"},
      {"sequence": "MNHQSYSAPTQAVAANTHLIYSTEQGGAVSPTPQKSIGSIADYDPMNGQWGTAAAQPRNSEKLGYLKAQVDKGPARFCADFAGAPPPSSNSISSTSPHSTLSSPQSTISPTGKAGFAVKAIYDYAAADKDEISFLEGDIIVNCEKIDDGWMTGTVQRTLQWGMLPANYVQPHKLPTGLHRLS", "soluble on expression in E. coli": "not soluble"},
      {"sequence": "MRDIVFIERDPYAPIRHCYTVSKILYQGKSPYQEIQVIESPEFGRMLILDGVVQLDEKYEFLYHEYLAHVPLHAHPNPRNVLIIGGGDGGTLREVLKHDIVERAVLVDIDKEVIEVSKKYLPTLSVGFQDPRAIVVNEDGYKYVQDYENEFDVIIVDSTDPVGFAHVLTTEDFFRHVYKALKEDGIFVAQTESIHYHLEMVSNIQQRLKKVFPIVDLYTSVIPIYAGYWWTFSIASKKYPVRTPAREVKVQTKIYDADMHEYAFLPESFYNKIVNGEYKYLEHHHHHH", "soluble on expression in E. coli": "not soluble"},
      {"sequence": "MAHHHHHHMTEGPLIVVGSVTLDQAARCYSPLSAPLRVRLEYAVLRPVVNPAWAATFEADIAYGRISVPLVQPTACSECMTPLNVPSSFLQHTPSDSIATLQPGELYQLDVHLETMELSKVEEKYVLQVGMLRLILLSGKTELADVNHVVQVKKNDDGELMRLIMNPLV", "soluble on expression in E. coli": "not soluble"},
      {"sequence": "MAHHHHHHMKKRYGNAGDWAVVTGASEGIGYAMALDLGRRGFNVCVIARTLSKLENVVEELKQLGVQGKAISFDFASATPKQYDDMFAELDKIEIAVLVNNVGVNYTYTNYFDEVDLETDLRLLKVNCESSVRMTKYVVPKMKAKRCGAIVMLGSVSAVTPAPLLCTYAGTKAFNLSFGSGLYYELKQFGIDVLAVSPNMVVSKMTQGLSSRKPRETFLMVNADRMAHQTLDKLGSVPQTPGHCNHAVLEAIVRALPTGYVSNKILETHKSIKRKAERKRE", "soluble on expression in E. coli": "not soluble"},
      {"sequence": "MGSDKIHHHHHHMYAQTPQDMTRALFEAQLVELQRARAIRKKYHTDVVLGLTSAIRVLLIDMPSLYDKIKLLDYLHIVVEEPRFRSSHEGVKFHAYTATLPPDRTPDRTLQRDRTSRQTAATPETPHTQTARSHKKVTRDTTPFAAYENSKYAPIFVEPHIFTVHPLLLWVQMAAYLRLEELVVLGDAMMRRSFYRVHVSPADFATLLNELPTTFPHRKKCDKAVKLLAENTDSCMETRLRFRMLRAGYGPFVINYRLPLNTADKKQAFLDIAIPNLKIAIEYSGKFHAQNWESDEARRTALSSAGWQILSVNAETLSNSGKFKDFLIQLSMTIARQQTILQRNQQM", "soluble on expression in E. coli": "not soluble"},
      {"sequence": "MTSSDQSPSHDVFVYGSFQEPAVVNLILECAPVMVSAQLHGYHLYRLKGRLHPCISPSDNGLINGKILTGLTDSQLESLDMIEGTEYVRKTVEVVLTDTLEKKQVETIVWANKDDPNMYGEWDFEEWKRLHMEKFIEAATKFMEWKKNPNGRSREEFEKFVQDDSSPASA", "soluble on expression in E. coli": "soluble"},
      {"sequence": "MNRISFNSFSNMHSLLSSKFQEHYNDIYDWNGNIENIYKANTFISIGYKLLYPLGVLEANFDKEKLKKFLFRICSYYNDIPYHTSLHAAQVAHFSKSMLFMLDMNHKISAIDEFCLHISSLCHDTGHPGLNNYFLINSENNLALTYNDNSVLENYHCSLLFKTLKNPNYNIFEHYPYHIFISCKKNIIKAILSTDMKNHFEYISDFRTSKEFIDYDNLSNDQIWQIFCLILKASDIGHSTLEWNKHLEWTLKINEEFYLQGLLEKSLNIQNSFLCDINTMNKLALSQIDFLKHLCIPLFNELNYICKNNDVYTHCIQPIENNIERWESHKND", "soluble on expression in E. coli": "soluble"},
      {"sequence": "MGSDKIHHHHHHMLKKSNIQWTAKQIAKMMDKGTLGFDNSVQRGLCWKTDKKILLIDSMFQNYPIPAFYAARNEDKTYDMLDGKQRCHAIKEFIEGKFKLDGIEEVELEDGESIDVNGMSFEELPEELQDRVKDYSLTVYFFLDLSDDQVSEMFYRLNNGKALSAIELTRVKAKSFDAIRELGNHEIFKNALTLKQVNKYTNEDIVIKTYAMLYTENPSFETKKIRPLMQDVEFTEQQKEEIKKAYSKILDIWKAINTEDKEHKKIAKRILTRTHLLTIIPIVIKSDKTIEELASWLLKFYSGKRRASISEKYNSAAGSGSARSESIKIRLEELKKDYNEYFSNQDEEINKKIEEIFKEGDSIE", "soluble on expression in E. coli": "not soluble"},
      {"sequence": "TSSLHPTRGKLLKRFAQIGPYIREQQCQESQFFFDCLAVCVNKKVTPEKREFWGWWMELERNGEQLIYYYQVGLFDKNGDWVNQVISKKDVIESIHETLIRFHDFLQAAVSELEMTLVPDEKMSNFPLPL", "soluble on expression in E. coli": "soluble"},
      {"sequence": "MATAAETSASEPEAESKAGPKADGEEDEVKAARTRRKVLSRAVAAATYKTMGPAWDQQEEGVSESDGDEYAMASSAESSPGEYEWEYDEEEEKNQLEIERLEEQLSINVYDYNCHVDLIRLLRLEGELTKVRMARQKMSEIFPLTEELWLEWLHDEISMAQDGLDREHVYDLFEKAVKDYICPNIWLEYGQYSVGGIGQKGGLEKVRSVFERALSSVGLHMTKGLALWEAYREFESAIVEAARLEKVHSLFRRQLAIPLYDMEATFAEYEEWSEDPIPESVIQNYNKALQQLEKYKPYEEALLQAEAPRLAEYQAYIDFEMKIGDPARIQLIFERALVENCLVPDLWIRYSQYLDRQLKVKDLVLSVHNRAIRNCPWTVALWSRYLLAMERHGVDHQVISVTFEKALNAGFIQATDYVEIWQAYLDYLRRRVDFKQDSSKELEELRAAFTRALEYLKQEVEERFNESGDPSCVIMQNWARIEARLCNNMQKARELWDSIMTRGNAKYANMWLEYYNLERAHGDTQHCRKALHRAVQCTSDYPEHVCEVLLTMERTEGSLEDWDIAVQKTETRLARVNEQRMKAAEKEAALVQQEEEKAEQRKRARAEKKALKKKKKIRGPEKRGADEDDEKEWGDDEEEQPSKRRRVENSIPAAGETQNVEVAAGPAGKCAAVDVEPPSKQKEKAASLKRDMPKVLHDSSKDSITVFVSNLPYSMQEPDTKLRPLFEACGEVVQIRPIFSNRGDFRGYCYVEFKEEKSALQALEMDRKSVEGRPMFVSPCVDKSKNPDFKVFRYSTSLEKHKLFISGLPFSCTKEELEEICKAHGTVKDLRLVTNRAGKPKGLAYVEYENESQASQAVMKMDGMTIKENIIKVAISNPPQRKVPEKPETRKAPGGPMLLPQTYGARGKGRTQLSLLPRALQRPSAAAPQAENGPAAAPAVAAPAATEAPKMSNADFAKLFLRK", "soluble on expression in E. coli": "soluble"},
      {"sequence": "VIIDTSALLAYFDAAEPDHAAVSECIDSSADALVVSPYVVAELDYLVATRVGVDAELAVLRELAGGAWELANCGAAEIEQAARIVTKYQDQRIGIADAANVVLADRYRTRTILTLDRRHFSALRPIGGGRFTVIP", "soluble on expression in E. coli": "not soluble"},
      {"sequence": "MKVSDILTVAIRLEEEGERFYRELSEHFNGEIKKTFLELADQERIHAEIFRKMSDQENWDEVDSYLAGYAFYEVFPDTSEILRRKDLTLKEVLDIAISVEKDSIILYYELKDGLVNSDAQKTVKKIIDQEKEHLRKLLEMKREST", "soluble on expression in E. coli": "not soluble"}
    ]}
  ]
}
